According to patent US8440413B2, “Method of screening for a substance that strengthens a bond between thioredoxin and macrophage migration inhibition factor” (Redox Bioscience, Inc., priority 2006, dated 2013):
Where two headings read alike, the source gives them in different places.

T1: bond between rTRX and rMIF (Homo sapiens, UniProt P10599)
T1 construct: His tag; made in house; host or cells: Escherichia coli
T1 sequence (P10599 1-105): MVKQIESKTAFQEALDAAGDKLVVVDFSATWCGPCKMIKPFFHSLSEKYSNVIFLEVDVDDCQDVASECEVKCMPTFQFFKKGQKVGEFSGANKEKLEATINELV

T2: MIF (Homo sapiens, UniProt P14174)
T2 construct: endogenous in cells; host or cells: ATL2 cells (concentrated culture supernatant)
T2 sequence (P14174 1-115): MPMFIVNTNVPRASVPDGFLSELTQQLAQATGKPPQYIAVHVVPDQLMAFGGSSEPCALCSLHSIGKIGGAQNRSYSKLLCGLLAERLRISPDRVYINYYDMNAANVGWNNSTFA

T3: rMIF (Homo sapiens, UniProt P14174)
T3 construct: His tag; made in house; host or cells: Escherichia coli
T3 sequence (P14174 1-115): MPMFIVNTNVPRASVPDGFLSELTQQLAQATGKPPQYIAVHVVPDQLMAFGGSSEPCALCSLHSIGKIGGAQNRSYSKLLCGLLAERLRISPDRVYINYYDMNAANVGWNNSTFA


How the values were obtained:
[1] = biological target: T1, bond between rTRX and rMIF; experiment: Screening by molecular interaction analysis (Biacore, SPR) for substances that strengthen the bond between TRX and MIF, Example 7; assay type: binding; details: analyte: rTRX 5 μM mixed with test substance 500 μM (Prostaglandin I2 also 5 μM); compared with rTRX only (FIGS. 7 to 11)
Method: For several test substances, it was confirmed with a molecular interaction analysis whether they strengthened the bond between TRX and MIF or not. rMIF was immobilized in a CM5 sensor chip as a ligand. The ligand was adjusted to have the rMIF concentration of less or equal to 200 nM by using running buffer, 10 mM HEPES (pH7.4), 150 mM NaCl, 3 mM EDTA and 0.005% Tween 20. […] In each analyte, the concentration of rTRX was 5 μM and the concentration of the test substance was 500 μM. For Prostaglandin I2, the analyte having its concentration of 5 μM was also analyzed.

MIF [2] = biological target: T2, MIF; experiment: Immunoprecipitation / Western blotting of the bond between TRX and MIF in cells; assay type: cell-based; details: ATL2 cells and HL60 cells; anti MIF antibody immunoprecipitation, anti TRX Western blotting (FIG. 1)
Method: The bonds between TRX and MIF in ATL2 cells and HL60 cells were confirmed with an immunoprecipitation method (to be described in detail below).
The cells were cultured with RPMI 1640 (SIGMA Inc.) medium containing 10% FCS, 100 U/ml penicillin and 100 μg/ml streptomycin in a 175 cm^2 flask.
1×10^7˜8/cell of the cells were collected and centrifugated at 1,000 rpm and 4° C. for 15 minutes. The obtained precipitation was dissolved with lysis buffer and left on the ice for 30 minutes.
The solution was centrifugated at 1,000 rpm and 4° C. for 15 minutes. The obtained supernatant was used for the immunoprecipitation experiment. The concentration of the protein was measured with DC protein assay kit (BIO RAD Inc.).
20 μl Protein G Sepharose and 500 μg of the cell solution were added to a microtube, and phosphate buffer was used to adjust the amount to 1 ml. The obtained solution was reacted at 4° C. for 3 hours with a small rotary incubator. The cell solution was centrifugated at 15,000 rpm and 4° C. for 2 minutes. The obtained supernatant was added to a new microtube, and 20 μl Protein G Sepharose and 4 μg/ml anti MIF antibody were also added thereto.
(§1) For a control, anti Rabbit antibody was used instead of the anti MIF antibody.
The reaction was carried out with a small rotary incubator at 4° C. for overnight. The reaction solution was centrifugated at 15,000 rpm and 4° C. for 2 minutes. […]

MIF [3] = biological target: T2, MIF; experiment: Immunoprecipitation / Western blotting of the bond between TRX and MIF outside ATL2 cells (culture supernatant); assay type: binding; details: anti MIF antibody immunoprecipitation, anti TRX Western blotting (FIG. 2)
Method: The bond between TRX and MIF outside ATL2 cells was confirmed with an immunoprecipitation method.
1×10^5/cell of the ATL2 cells were cultured with RPMI 1640 (SIGMA Inc.) medium containing 100 U/ml penicillin and 100 μg/ml streptomycin in a 175 cm^2 flask for 3 days. Then, the medium was collected and centrifugated at 10,000 rpm and 4° C. for 15 minutes. Then, FCS was added to the obtained supernatant to adjust the final concentration to 10%, and the solution was concentrated with Amicon ultra-4. The obtained concentrated-solution was used for the immunoprecipitation experiment. 20 μl Protein G Sepharose and 30 μl of the culture supernatant were added to a microtube, and phosphate buffer was used to adjust the amount to 1 ml. The obtained solution was reacted at 4° C. for 3 hours with a small rotary incubator. The cell solution was centrifugated at 15,000 rpm and 4° C. for 2 minutes. The obtained supernatant was added to a new microtube, and 20 μl Protein G Sepharose and 4 μg/ml of the anti MIF antibody were also added thereto.
as §1
The reaction was carried out with a small rotary incubator at 4° C. for overnight. The reaction solution was centrifugated at 15,000 rpm and 4° C. for 2 minutes. The precipitation was washed with washing buffer (50 mM Tris-HCl (pH7.5), 150 mM NaCl, 0.1% NP40). […]

ATL2 cells = experiment: Inhibition of the cell internalization of MIF into ATL2 cells (Western blotting, densitometer); assay type: cell-based, human; details: rTRX 0 to 250 μg/ml, 25 μg/ml rMIF, 24 hours (FIG. 3)
Method: MIF is internalized (incorporated) into cells by the autocrine or paracrine action to induce the production of inflammatory cytokine TNF-alpha(α) or IL-1. Thus, the effects of TRX on the cell internalization of MIF were examined to clarify the inflammation response control mechanism.
ATL2 cells were cultured with RPMI 1640 medium containing 10% FCS, 100 U/ml penicillin and 100 μg/ml streptomycin in a 75 cm^2 flask.
1×10^6/cell of ATL2 cells were added to a 24 well plate. rTRX having the final concentration of 0 to 250 μg/ml and 25 μg/ml rMIF were also added thereto, and cultured under the condition of […] at 37° C. for 24 hours.
After cells were collected, the precipitation was mixed with SDS-PAGE sample buffer, and then electrophoresed on a 15% SDS-PAGE gel. After the electrocataphoresis, a Western blotting was performed to detect MIF internalized in the cells with anti His-tagged antibody. The change of the band by the Western blotting was analyzed with a densitometer.

RAW 264.7 cells = experiment: Inhibition of MIF activity measured as TNF-alpha production in RAW 264.7 cells (ELISA); assay type: cell-based, mouse; details: MIF 10 ng/ml, 0 to 500 ng/ml TRX, LPS 100 ng/ml (FIG. 4)
Method: TRX's inhibition of MIF activity was confirmed by measuring a concentration of inflammatory cytokine TNF-α (to be described in detail below).
RAW 264.7 cells were cultured with RPMI 1640 medium containing 10% FCS, 100 U/ml penicillin and 100 μg/ml streptomycin in a 75 cm^2 flask.
RAW 264.7 cells were added to a 24 well plate (1×10^6/cell). MIF having a final concentration of 10 ng/ml and 0 to 500 ng/ml TRX were also added thereto, and left under the condition of 5% CO2 at 37° C. for 4 hours.
Further, 100 ng/ml of LPS was added to the plate (described as LPS (+)), and the plate was left under the condition of 5% CO2 at 37° C. for 4 hours. Then, the medium was collected.
Amount of the generated TNF-alpha (α) was measured with Duo Set ELISA Development system mouse TNF-α kit.
The measuring method was based on the protocol attached to the kit.

rMIF [4] = biological target: T3, rMIF; experiment: Molecular interaction analysis (Biacore, SPR) of the bond between rTRX and rMIF, Example 5; assay type: binding; details: rMIF immobilized on CM5 sensor chip; rTRX 2 to 12 μM (FIG. 5)
Method: The bond between TRX and MIF was confirmed with a molecular interaction analysis (Biacore) (hereinafter, referred to as “molecular interaction analysis”) utilizing surface plasmon resonance (SPR) phenomenon.
rMIF was immobilized in a CM5 sensor chip as a ligand. The ligand was adjusted to include MIF less or equal to 200 nM by using running buffer, 10 mM HEPES (pH7.4), 150 mM NaCl, 3 mM EDTA and 0.005% Tween 20.
Then, rTRX was used as an analyte to analyze the interaction between rTRX and rMIF. The concentration of rTRX was changed to 2 μM, 4 μM, 6 μM, 8 μM, 10 μM and 12 μM for the analysis.

rMIF [5] = biological target: T3, rMIF; experiment: Molecular interaction analysis (Biacore, SPR) of rTRX variants and rMIF in oxidation and reduction states, Example 6; assay type: binding; details: for change of the dissociation constant value between oxidation state and reduction state: oxidation state versus reduction state; for Kd: rMIF immobilized on CM5 sensor chip, read-out: KD (dissociation constant value)
Method: It was confirmed with a molecular interaction analysis whether the cysteine residues at 32 and 35 positions (the active site of TRX) affect the bond between TRX and MIF or not.
rMIF was immobilized in a CM5 sensor chip as a ligand, wherein the concentration of rMIF was adjusted to less than or equal to 200 nM.
Then, rWT TRX, rDM TRX and rC35S TRX were used as analytes to analyze the interaction between these rTRX and rMIF in both oxidation and reduction states, respectively.
In the oxidation state, running buffer, 10 mM HEPES (pH7.4), 150 mM NaCl, 3 mM EDTA and 0.005% Tween 20 were used to adjust the ligand. In the reduction state, 1M DTT was used in addition to the running buffer, 10 mM HEPES (pH7.4), 150 mM NaCl, 3 mM EDTA and 0.005% Tween 20 to adjust the ligand.
Tables 1 and 2 show the dissociation constant value (KD value) calculated from FIG. 6.

[6] = reduction state (DTT added to running buffer)

Molecule	effect of the test substance on the bond between rTRX and rMIF [1]	direct bond with rMIF (rMIF [5]; FIG. 6, Tables 1 and 2)	change of the dissociation constant value between oxidation state and reduction state (rMIF [5])	Kd (rMIF [5]; oxidation state) [µM]	Kd (rMIF [5]; [6]) [µM]	other results
N[C@@H](CCC(=O)N[C@@H](CSN=O)C(=O)NCC(=O)O)C(=O)O [Nitrosoglutathione]	remarkably strengthen the bond between rTRX and rMIF	–	–	–	–	–
CCCCC[C@H](O)/C=C/[C@@H]1[C@H]2C/C(=C/CCCC(=O)O)O[C@H]2C[C@H]1O [Prostaglandin I2]	remarkably strengthen the bond between rTRX and rMIF	–	–	–	–	–
rTRX: Recombinant thioredoxin; His-tagged, expressed in Escherichia coli (Examples 5-7); from Ajinomoto in Examples 3-4 (protein, left off: small tags and cut ends) MVKQIESKTAFQEALDAAGDKLVVVDFSATWCGPCKMIKPFFHSLSEKYSNVIFLEVDVDDCQDVASECEVKCMPTFQFFKKGQKVGEFSGANKEKLEATINELV	–	bonded directly with rMIF	almost no changes in the dissociation constant values	25.3	29.7	bond between TRX and MIF in cells (MIF [2]): bonds directly with MIF; bond between TRX and MIF outside cells (MIF [3]): bonds directly with MIF; internalization of MIF into cells (ATL2 cells): inhibits the internalization of MIF into the ATL2 cells; inhibition of rMIF activity (RAW 264.7 cells): inhibits the activity of rMIF depending on the concentration of rTRX; production of MIF-derived TNF-alpha (RAW 264.7 cells): inhibits the production of MIF-derived TNF-alpha; bond between rTRX and rMIF (surface plasmon resonance) (rMIF [4]): concentration-dependent
rDM TRX: the rTRX of Example 5 in which the cysteine residues at 32 and 35 positions were converted to serine (protein, left off: small tags and cut ends) MVKQIESKTAFQEALDAAGDKLVVVDFSATWSGPSKMIKPFFHSLSEKYSNVIFLEVDVDDCQDVASECEVKCMPTFQFFKKGQKVGEFSGANKEKLEATINELV	–	bonded directly with rMIF	almost no changes in the dissociation constant values	11.9	16.6	–
rC35S TRX: the rTRX of Example 5 in which the cysteine residue at 35 position was converted to serine (protein, left off: small tags and cut ends) MVKQIESKTAFQEALDAAGDKLVVVDFSATWCGPSKMIKPFFHSLSEKYSNVIFLEVDVDDCQDVASECEVKCMPTFQFFKKGQKVGEFSGANKEKLEATINELV	–	bonded directly with rMIF	strong bond with rMIF in the oxidation state	3.95	–	strength of the bond with rMIF compared with the other rTRX (rMIF [5]; FIG. 6, Tables 1 and 2): stronger than the bond between rWT TRX or rDM TRX and MIF
